Like-named read-outs stand apart in the source and are kept apart here. *1 amine or outer side, *2 acyl side, *3 side chain or, on linkers, in order; H or OH if unused. Where a SMILES comes first, the peptide text is derived from it. Where no end group is shown, it is not given here. Side-chain parts run from the residue outwards. [ ]: non-standard residue; d: D form. The star is where a group is joined. C20 diacid = O=C(O)CCCCCCCCCCCCCCCCCCC(=O)*; γGlu = O=C(O)[C@H](CCC(=O)[*:2])N[*:1]; εLys = N[C@@H](CCCCN[*:1])C(=O)[*:2]; Palmitoyl = CCCCCCCCCCCCCCCC(=O)*; Aib = CC(C)(N)C(=O)O
T1: human glucose-dependent insulinotropic polypeptide receptor (human, UniProt P48546 22-466)
T1 sequence (looked up): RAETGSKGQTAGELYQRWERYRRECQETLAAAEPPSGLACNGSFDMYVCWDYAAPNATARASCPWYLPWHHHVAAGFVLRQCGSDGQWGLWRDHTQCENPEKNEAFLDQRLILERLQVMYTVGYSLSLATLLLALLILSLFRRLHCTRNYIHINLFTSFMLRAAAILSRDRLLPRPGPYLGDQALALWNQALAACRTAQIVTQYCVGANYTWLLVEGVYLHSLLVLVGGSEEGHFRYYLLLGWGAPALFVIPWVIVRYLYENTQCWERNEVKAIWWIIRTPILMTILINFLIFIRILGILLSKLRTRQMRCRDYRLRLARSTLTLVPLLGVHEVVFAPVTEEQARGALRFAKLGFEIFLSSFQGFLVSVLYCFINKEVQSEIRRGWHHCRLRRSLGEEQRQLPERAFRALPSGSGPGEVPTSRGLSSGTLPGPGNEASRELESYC


Tests used:
[1] = Pharmacokinetic study in minipigs, i.v. administration; parameters: species or system Göttingen minipigs; conditions: female, Göttingen, minipig, in vivo, iv; minipigs, i.v. administration, harmonic mean; read-out: Terminal half-life t1/2 (converted)
Method in brief: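 Female Göttingen minipigs (7-14 months, 16-35 kg), fasted ~18 h pre-dose to 4 h post-dose, received i.v. injections of usually 1.5-2 nmol/kg via central venous catheter. Plasma sampled up to 14 days, assayed by ELISA or LCMS; terminal half-life (harmonic mean) from non-compartmental analysis.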

[2] = Maximal efficacy study in DIO mice, daily s.c. dose titration for up to 60 days (body weight, food intake); assay type: in vivo, C57BL/6J male mice
Experimental: The purpose of this example is to assess the in vivo effect of selected triple agonists on pharmacodynamic parameters in diet-induced obese (DIO) mice. The animals were treated once daily via subcutaneous injection with a liquid formulation of the triple agonist to be tested to assess effects on body weight, foot intake, and glucose tolerance.
C57BL/6J male mice were purchased from Jackson Laboratories at approximately 8 weeks of age. Mice were group housed and fed a high-fat, high-sugar diet from Research Diets (D12331). Mice were maintained on this diet for 12 weeks prior to initializing the pharmacology studies. Mice exceeding a measured body weight of 50 grams were considered diet-induced obese (DIO) and included in pharmacology studies. Mice were exposed to a controlled 12 h:12 h light:dark cycle at ambient room temperature (22° C.) with ab libitum access to food and water. Studies were approved by and performed according to the guidelines of the Institutional Animal Care and Use Committee of the University of Cincinnati.
All compounds in the study were formulated in the following buffer: 50 mM phosphate; 70 mM sodium chloride; 0.05% Tween-80, pH 7.4. Dosing solutions were formulated in glass vials and stored at 2-8° C. Dosing solutions were brought to room temperature before dosing and returned to 2-8° C. after dosing.
DIO mice were distributed into groups (n=8 per group) such that statistical variations in the mean and standard deviations of fat mass and body weight were minimized between groups. The animals were grouped to receive treatment as follows: Vehicle or GLP-1/GIP/Gcg receptor triple agonists as described herein, where vehicle is 50 mM phosphate, 70 mM sodium chloride; 0.05% (v/v) Tween-80, pH 7.4. The test compounds were dissolved in the vehicle, to stock concentrations of […], then diluted 50- to 200-fold in the vehicle to achieve the desired dosing solution concentrations. Animals were dosed subcutaneously once daily in the morning for each day of treatment with dosing solution at a volume of 2-5 μL per gram of body weight as necessary to achieve the desired dose (e.g. 0.3 nmol/kg, 1.0 nmol/kg, or 3.0 nmol/kg).
Body weight (BW) and food intake were measured immediately prior to dosing each day. The percent change in body was calculated individually for each mouse based on initial body weight prior to the first injection.
In one study, DIO mice received a daily subcutaneous dose for up to 60 days of one of the following: vehicle, Compound No. 21, Compound No. 30, or Compound No. 33. The dose of each compound was up-titrated to maximal efficacy based on the titration schedule included in Table 4. Mice that achieved body weight normalization, defined as a body weight of 22.5 g or less, were voluntarily removed from the study. All triple agonist compounds tested resulted is substantially greater reductions of body weight and food intake than vehicle. […] This may be explained by the similar GLP-1R and GIPR in vitro potency but reduced in vitro GcgR potency of Compound No. 21 compared to Compound No. 30 and Compound No. 33 when investigated with the protocol described in Example 2 except using the mouse-specific receptors.

[3] = molecular target: T2, human glucagon-like peptide 1 receptor (human, UniProt P43220 24-463); assay: cell-based or functional assay
[4] = molecular target: T1, human glucose-dependent insulinotropic …; assay: cell-based or functional assay
human glucagon receptor [5] = molecular target: T3, human glucagon receptor (human, UniProt P47871 26-477); assay: cell-based or functional assay
[6] = molecular target: T2, human glucagon-like peptide 1 receptor; assay: cell-based or functional assay; remark: listed apart in the source
[7] = molecular target: T1, human glucose-dependent insulinotropic …; assay: cell-based or functional assay; remark: listed apart in the source
human glucagon receptor [8] = molecular target: T3, human glucagon receptor; assay: cell-based or functional assay; remark: listed apart in the source
[9] = s.c. once daily, dose titration of Table 4, last day of treatment, mean ± SEM

T3 sequence (P47871 26-477): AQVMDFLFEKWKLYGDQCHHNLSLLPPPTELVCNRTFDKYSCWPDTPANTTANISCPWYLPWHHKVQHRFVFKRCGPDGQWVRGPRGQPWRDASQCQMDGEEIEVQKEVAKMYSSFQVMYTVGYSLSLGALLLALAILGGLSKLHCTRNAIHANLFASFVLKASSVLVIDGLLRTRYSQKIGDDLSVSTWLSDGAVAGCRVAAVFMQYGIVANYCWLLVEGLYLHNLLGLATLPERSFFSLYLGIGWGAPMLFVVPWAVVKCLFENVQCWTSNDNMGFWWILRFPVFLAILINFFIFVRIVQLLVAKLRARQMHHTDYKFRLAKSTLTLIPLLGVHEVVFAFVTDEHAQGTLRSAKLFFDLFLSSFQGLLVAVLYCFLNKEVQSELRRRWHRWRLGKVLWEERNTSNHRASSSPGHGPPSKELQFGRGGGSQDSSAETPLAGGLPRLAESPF

| Molecule | half-life [1] [h] | Absolute BW (grams) Day 0 ([2]; Day 0 (baseline), mean ± SEM) [grams] | Absolute BW (grams) Last day of treatment [2, 9] [grams] | Change in BW (%) Last day of treatment [2, 9] [%] | Average food intake per mouse (grams/day) ([2]; s.c. once daily, dose titration of Table 4, mean ± SEM, n = 1-2) | hGLP-1R CRE Luc EC50 (pM) [3] [pM] | hGIPR CRE Luc EC50 (pM) [4] [pM] | hGcgR CRE Luc EC50 (pM) (human glucagon receptor [5]) | hGLP-1R CRE Luc EC50 (pM) [6] [pM] | hGIPR CRE Luc EC50 (pM) [7] [pM] | hGcgR CRE Luc EC50 (pM) (human glucagon receptor [8]) |
| --- | --- | --- | --- | --- | --- | --- | --- | --- | --- | --- | --- |
| CC[C@H](C)[C@H](NC(=O)[C@H](CO)NC(=O)[C@H](Cc1ccc(O)cc1)NC(=O)[C@H](CC(=O)O)NC(=O)[C@H](CO)NC(=O)[C@@H](NC(=O)[C@H](Cc1ccccc1)NC(=O)[C@@H](NC(=O)CNC(=O)[C@H](Cc1c[nH]cn1)NC(=O)C(C)(C)NC(=O)[C@@H](N)Cc1c[nH]cn1)[C@@H](C)O)[C@@H](C)O)C(=O)N[C@@H](Cc1ccc(O)cc1)C(=O)N[C@@H](CC(C)C)C(=O)N[C@@H](CCC(=O)O)C(=O)N[C@@H](CCCCNC(=O)[C@@H](N)CCCCNC(=O)[C@@H](N)CCCCNC(=O)CC[C@H](NC(=O)CCCCCCCCCCCCCCCCCCC(=O)O)C(=O)O)C(=O)N[C@@H](CCCCN)C(=O)N[C@@H](Cc1ccc(O)cc1)C(=O)N[C@@H](C)C(=O)NC(C)(C)C(=O)N[C@@H](CCC(=O)O)C(=O)N[C@@H](Cc1ccccc1)C(=O)N[C@H](C(=O)N[C@@H](CCC(N)=O)C(=O)N[C@@H](Cc1c[nH]c2ccccc12)C(=O)N[C@@H](CC(C)C)C(=O)N[C@@H](CC(C)C)C(=O)N[C@@H](CCC(=O)O)C(=O)NCC(=O)NCC(=O)N1CCC[C@H]1C(=O)N[C@@H](CO)C(=O)N[C@@H](CO)C(=O)NCC(=O)N[C@@H](C)C(=O)N1CCC[C@H]1C(=O)N1CCC[C@H]1C(=O)N1CCC[C@H]1C(=O)N[C@@H](CO)C(N)=O)C(C)C [Compound No. 30] (H-H[Aib]HGTFTSDYSIYLEK([εLys-εLys-γGlu-C20 diacid])KYA[Aib]EFVQWLLEGGPSSGAPPPS-NH2; N-terminus assumed) | 78 | 56.2 ± 1.3 | 22.2 ± 0.3 | −60.5 ± 0.4 | 1.39 ± 0.13 |  |  |  |  |  |  |
| Y[Aib]QGTFTSDYSIYLDKQAA[Aib]EFVNWLLAGGPSSGAPPPS-NH2 (not fully specified (residue 16); printed as Y-Aib-QGTFTSDYSIYLD-K[2-[2-[2-[[2-[2-[2-[[(4S)-4-carboxy-4-(17-carboxyheptadecanoylamino)butanoyl]amino]ethoxy]ethoxy]acetyl]amino]ethoxy]ethoxy]acetyl]-QAA-Aib-EFVNWLLAGGPSSGAPPPS-NH2) [Compound No. 1] |  |  |  |  |  | 8.6 | 23.7 | 157 | 8.6 | 23.7 | 157 |
| Y[Aib]QGTFTSDYSIYLDKQAA[Aib]EFVNWLLAKGPSSGAPPPS-NH2 (not fully specified (residue 29)) [Compound No. 65] |  |  |  |  |  | 132 | 56 | 1350 |  |  |  |
| Y[Aib]QGTFTSDYSIYLDKQAA[Aib]EFVNWLLAGGPSSGAPPPSK(Palmitoyl)-NH2 (N-terminus assumed; SMILES CCCCCCCCCCCCCCCC(=O)NCCCC[C@H](NC(=O)[C@H](CO)NC(=O)[C@@H]1CCCN1C(=O)[C@@H]1CCCN1C(=O)[C@@H]1CCCN1C(=O)[C@H](C)NC(=O)CNC(=O)[C@H](CO)NC(=O)[C@H](CO)NC(=O)[C@@H]1CCCN1C(=O)CNC(=O)CNC(=O)[C@H](C)NC(=O)[C@H](CC(C)C)NC(=O)[C@H](CC(C)C)NC(=O)[C@H](Cc1c[nH]c2ccccc12)NC(=O)[C@H](CC(N)=O)NC(=O)[C@@H](NC(=O)[C@H](Cc1ccccc1)NC(=O)[C@H](CCC(=O)O)NC(=O)C(C)(C)NC(=O)[C@H](C)NC(=O)[C@H](C)NC(=O)[C@H](CCC(N)=O)NC(=O)[C@H](CCCCN)NC(=O)[C@H](CC(=O)O)NC(=O)[C@H](CC(C)C)NC(=O)[C@H](Cc1ccc(O)cc1)NC(=O)[C@@H](NC(=O)[C@H](CO)NC(=O)[C@H](Cc1ccc(O)cc1)NC(=O)[C@H](CC(=O)O)NC(=O)[C@H](CO)NC(=O)[C@@H](NC(=O)[C@H](Cc1ccccc1)NC(=O)[C@@H](NC(=O)CNC(=O)[C@H](CCC(N)=O)NC(=O)C(C)(C)NC(=O)[C@@H](N)Cc1ccc(O)cc1)[C@@H](C)O)[C@@H](C)O)[C@@H](C)CC)C(C)C)C(N)=O) [Compound No. 58] |  |  |  |  |  | 4.1 | 7.2 | 21.2 |  |  |  |
| Y[Aib]QGTFTSDYSIYLDKKAA[Aib]EFVNWLLAGGPSSGAPPPS-NH2 (not fully specified (residue 17); printed as Y-Aib-QGTFTSDYSIYLDK-K[2-[2-[2-[[2-[2-[2-[[(4S)-4-carboxy-4-(17-carboxyheptadecanoylamino)butanoyl]amino]ethoxy]ethoxy]acetyl]amino]ethoxy]ethoxy]acetyl]-AA-Aib-EFVNWLLAGGPSSGAPPPS-NH2) [Compound No. 2] |  |  |  |  |  | 7.1 | 49.8 | 47.6 | 7.1 | 49.8 | 47.6 |
| Y[Aib]QGTFTSDYSIYLDKQAA[Aib]KFVNWLLAGGPSSGAPPPS-NH2 (not fully specified (residue 21); printed as Y-Aib-QGTFTSDYSIYLDKQAA-Aib-K[2-[2-[2-[[2-[2-[2-[[(4S)-4-carboxy-4-(17-carboxyheptadecanoylamino)butanoyl]amino]ethoxy]ethoxy]acetyl]amino]ethoxy]ethoxy]acetyl]-FVNWLLAGGPSSGAPPPS-NH2) [Compound No. 3] |  |  |  |  |  | 5.4 | 27.5 | 34.7 | 5.4 | 27.5 | 34.7 |
| Y[Aib]QGTFTSDYSIYLDKQAA[Aib]EFVNWLLAGGPSSGKPPPS-NH2 (not fully specified (residue 35)) [Compound No. 66] |  |  |  |  |  | 12 | 26 | 1020 |  |  |  |
| Y[Aib]QGTFTSDYSIYLDKQAA[Aib]EFVNWLLAGGPSSGAPPPSK-NH2 (not fully specified (residue 40)) [Compound No. 59] |  |  |  |  |  | 11.7 | 44.5 | 703 |  |  |  |
